From PMC7511888, “Dependence of PINK1 accumulation on mitochondrial redox system” (Aging Cell, 2020)

T1: CHCHD4 (human (endogenous in HEK293), UniProt Q8N4Q1 1-142)
T1 construct: CHCHD4, mammalian homologue of yeast Mia40; endogenous protein of HEK293 cells, precipitated with polyclonal anti-CHCHD4 antibodies (Proteintech); source: endogenous, HEK293 lysate
T1 sequence (looked up): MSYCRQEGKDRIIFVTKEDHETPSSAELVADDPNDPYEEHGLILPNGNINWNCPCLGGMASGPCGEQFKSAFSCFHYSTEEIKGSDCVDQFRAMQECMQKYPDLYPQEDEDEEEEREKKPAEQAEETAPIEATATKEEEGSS


How the values were obtained:
[1] = target: CHCHD4 (human (endogenous in HEK293)) (UniProt Q8N4Q1); assay: co-IP; HEK293 cells transfected with PINK1-EGFP or its mutants for 24 hr; lysed; immunoprecipitation of endogenous CHCHD4 with anti-CHCHD4 antibody; immunoblot; level in the precipitant compared to input
CHCHD4 = target: T1, CHCHD4; assay: as above; conditions: partners not purified

| relative level in the precipitants as compared to input [1] | relative level in the precipitants as compared to input (CHCHD4) | Molecule |
| --- | --- | --- |
| 1.01 |  | PINK1‐EGFP ∆166‐171 (AA166‐171 deletion) (from UniProt Q9BXM7 78-581) (natural protein) |
|  | 0.2 | PINK1‐EGFP A168P (natural protein, UniProt Q9BXM7 78-581, looked up, PINK1 as in PINK1-EGFP with the PD-associated mutation A168P; also called PINK1 A168P; PD‐associated mutant; source: HEK293, transfected, in lysate; not shown: EGFP (from the vector pEGFP-N3), C-terminal, kept) AARLQRQFVVRAWGCAGPCGRAVFLAFGLGLGLIEEKQAESRRAVSACQEIQAIFTQKSKPGPDPLDTRRLQGFRLEEYLIGQSIGKGCSPAVYEATMPTLPQNLEVTKSTGLLPGRGPGTSAPGEGQERAPGAPAFPLAIKMMWNISAGSSSEAILNTMSQELVPASRVALAGEYGAVTYRKSKRGPKQLAPHPNIIRVLRAFTSSVPLLPGALVDYPDVLPSRLHPEGLGHGRTLFLVMKNYPCTLRQYLCVNTPSPRLAAMMLLQLLEGVDHLVQQGIAHRDLKSDNILVELDPDGCPWLVIADFGCCLADESIGLQLPFSSWYVDRGGNGCLMAPEVSTARPGPRAVIDYSKADAWAVGAIAYEIFGLVNPFYGQGKAHLESRSYQEAQLPALPESVPPDVRQLVRALLQREASKRPSARVAANVLHLSLWGEHILALKNLKLDKMVGWLLQQSAATLLANRLTEKCCVETKMKMLFLANLECETLCQAALLLCSWRAAL |
|  | 0.39 | PINK1‐EGFP V170G (natural protein, UniProt Q9BXM7 78-581, looked up, PINK1 as in PINK1-EGFP with the PD-associated mutation V170G; also called PINK1 V170G; PD‐associated mutant; source: HEK293, transfected, in lysate; not shown: EGFP (from the vector pEGFP-N3), C-terminal, kept) AARLQRQFVVRAWGCAGPCGRAVFLAFGLGLGLIEEKQAESRRAVSACQEIQAIFTQKSKPGPDPLDTRRLQGFRLEEYLIGQSIGKGCSAAGYEATMPTLPQNLEVTKSTGLLPGRGPGTSAPGEGQERAPGAPAFPLAIKMMWNISAGSSSEAILNTMSQELVPASRVALAGEYGAVTYRKSKRGPKQLAPHPNIIRVLRAFTSSVPLLPGALVDYPDVLPSRLHPEGLGHGRTLFLVMKNYPCTLRQYLCVNTPSPRLAAMMLLQLLEGVDHLVQQGIAHRDLKSDNILVELDPDGCPWLVIADFGCCLADESIGLQLPFSSWYVDRGGNGCLMAPEVSTARPGPRAVIDYSKADAWAVGAIAYEIFGLVNPFYGQGKAHLESRSYQEAQLPALPESVPPDVRQLVRALLQREASKRPSARVAANVLHLSLWGEHILALKNLKLDKMVGWLLQQSAATLLANRLTEKCCVETKMKMLFLANLECETLCQAALLLCSWRAAL |
|  | 3.31 | PINK1‐EGFP Y171S (natural protein, UniProt Q9BXM7 78-581, looked up, PINK1 as in PINK1-EGFP with Y171S; also called Y171S point mutant; source: HEK293, transfected, in lysate; not shown: EGFP (from the vector pEGFP-N3), C-terminal, kept) AARLQRQFVVRAWGCAGPCGRAVFLAFGLGLGLIEEKQAESRRAVSACQEIQAIFTQKSKPGPDPLDTRRLQGFRLEEYLIGQSIGKGCSAAVSEATMPTLPQNLEVTKSTGLLPGRGPGTSAPGEGQERAPGAPAFPLAIKMMWNISAGSSSEAILNTMSQELVPASRVALAGEYGAVTYRKSKRGPKQLAPHPNIIRVLRAFTSSVPLLPGALVDYPDVLPSRLHPEGLGHGRTLFLVMKNYPCTLRQYLCVNTPSPRLAAMMLLQLLEGVDHLVQQGIAHRDLKSDNILVELDPDGCPWLVIADFGCCLADESIGLQLPFSSWYVDRGGNGCLMAPEVSTARPGPRAVIDYSKADAWAVGAIAYEIFGLVNPFYGQGKAHLESRSYQEAQLPALPESVPPDVRQLVRALLQREASKRPSARVAANVLHLSLWGEHILALKNLKLDKMVGWLLQQSAATLLANRLTEKCCVETKMKMLFLANLECETLCQAALLLCSWRAAL |
